Read-outs that look alike come from different tables or passages of the source.

“SIVmac239 Env (envelope glycoprotein, gp120 V2 apex): T173I (in SIVmac239 K180S)”: where the note is “N-glycosylation at N171”, the expression_or_secretion result is recorded as “no change” and the other entry is recorded as “abolishes”.

Regarding “SIVmac239 Env (envelope glycoprotein, gp120): S204G (in SIVmac239 K180S)”, where the note is “N-glycosylation at N202”, the expression_or_secretion entry was “no change” and the other entry is “decreases”.

For the origin of these results see paper PMC10833561.
